Assays:
[1] = molecular target: T1, CHD4 PHD1-linker (aa 361–443) (human, UniProt Q14839 361-443); experiment: 75 mM NaCl
CHD4 PHD2 (443–498) = CHD4 PHD2 (443–498) (human, UniProt Q14839 443-498); experiment: 150 mM NaCl
CHD4 PHD1 (aa 362–417) = CHD4 PHD1 (aa 362–417) (human, UniProt Q14839 362-417); experiment: 150 mM NaCl
CHD4 PHD1/2 (aa 361–503) = CHD4 PHD1/2 (aa 361–503) (human, UniProt Q14839 361-503); experiment: 150 mM NaCl
[2] = molecular target: CHD4 linker-PHD2 (aa 414–503) (human, UniProt Q14839 414-503); experiment: 150 mM NaCl
CHD4 linker-PHD2 (aa 414–503), sequence (Q14839 414-503): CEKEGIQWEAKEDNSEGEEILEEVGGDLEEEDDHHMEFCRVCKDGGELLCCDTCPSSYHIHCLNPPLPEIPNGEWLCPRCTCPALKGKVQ

[3] = molecular target: T1, CHD4 PHD1-linker (aa 361–443); experiment: 150 mM NaCl

T1 sequence (Q14839 361-443): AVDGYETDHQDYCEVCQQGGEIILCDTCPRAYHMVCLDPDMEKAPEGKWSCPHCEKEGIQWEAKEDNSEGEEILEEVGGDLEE
CHD4 PHD2 (443–498), sequence (Q14839 443-498): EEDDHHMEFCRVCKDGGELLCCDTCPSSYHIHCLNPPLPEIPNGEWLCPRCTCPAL
CHD4 PHD1 (aa 362–417), sequence (Q14839 362-417): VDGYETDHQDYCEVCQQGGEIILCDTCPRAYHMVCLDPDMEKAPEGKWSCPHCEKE
CHD4 PHD1/2 (aa 361–503), sequence (Q14839 361-503): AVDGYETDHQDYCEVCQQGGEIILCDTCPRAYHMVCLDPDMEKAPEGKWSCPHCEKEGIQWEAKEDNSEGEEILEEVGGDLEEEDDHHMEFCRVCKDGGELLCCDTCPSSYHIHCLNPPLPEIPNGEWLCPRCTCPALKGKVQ

Kd [1]: 300 nM
Kd (CHD4 PHD2 (443–498)): 3000 nM
Kd (CHD4 PHD1 (aa 362–417)): 18000 nM
Kd (CHD4 PHD1/2 (aa 361–503)): 220 nM
Kd [2]: 270 nM
Kd [3]: 500 nM
B1: histone H3 peptide (aa 1–12) (peptide)
peptide: ARTKQTARKSTG

From publication PMC5686127 (2017)
